The target of the experiment is Deinococcus radiodurans DNA polymerase III β subunit (β-clamp), short version of 362 amino acids (Deinococcus radiodurans strain R1). Description: SEC; Superdex 75 10/30, purified Drβ-clamp, size and tertiary structure analysis.

In turn, “Deinococcus radiodurans DNA polymerase III β subunit (β-clamp), short version of 362 amino acids (natural protein)” yielded a stoichiometry N of 2.
